Legend:
MCF7 CARM1 KO cells [1] = assay: Quantitative MS of ADMA-containing peptides in MCF7 CARM1 KO cells expressing CARM1 28-608 or CARM1 140-608, and in CARM1 KO; type: cell-based, human; settings: stable CARM1 140–608 in MCF7 CARM1 KO cells; reference CARM1 28–608; three biological replicas
[2] = test system: BAF155, MED12, PABP1, NCOA3 and TET2; assay: Co-immunoprecipitation of BAF155, MED12, PABP1, NCOA3 and TET2 with FLAG-tagged CARM1, western blot; type: cell-based; settings: FLAG-tagged construct transiently transfected in HEK293T CARM1 KO cells; anti-FLAG IP
Source text: The structure of the N-terminal domain of CARM1 (residues 28–140) resembles those of the EVH1 domains, a subfamily of PH domains that bind proline-rich sequences. With our discovery that CARM1 substrates contain proline-rich motifs, we posited that the protein's N-terminal domain may be required for substrate recognition. To test this hypothesis, we generated three CARM1 constructs: one full-length (CARM1 FL) and two N-terminal truncations CARM1 28–608 and CARM1 140–608 (Fig. 3a). […] We transiently transfected the three FLAG-tagged CARM1 fusion constructs in HEK293T CARM1 KO cells. CARM1 was immunoprecipitated from all three cell lines using anti-FLAG M2 resin, and four known CARM1 substrates/interactors (that is, BAF155 (ref. [20]), MED12 (ref. [30]), PABP1 (ref. [36]) and NCOA3 (ref. [19])) and newly identified TET2 were detected by western blotting. […] To globally assess the magnitude of reduction in CARM1–substrate interactions induced by the loss of the EVH1 domain, we visualized overall protein changes in CARM1 immunoprecipitates by western blotting using the ADMA antibody (Fig. 3c).
(§1) Cells were collected by trypsinization, washed with Dulbecco's phosphate buffer saline (Life Technologies, Carlsbad, CA) and lysed by suspension in lysis buffer (50 mM Tris-HCl pH 8.0, 150 mM NaCl, 10% glycerol, 0.5% Triton X-100 and 1 × protease inhibitor cocktail (Sigma-Aldrich)). After brief sonication followed by centrifugation, total protein was quantified using the BioRad Protein Assay (BioRad, Hercules, CA), and 20 μg protein was resolved by SDS–PAGE. Proteins were transferred to a nitrocellulose membrane for 1.5 h at 350 mA. Membranes were blocked with 5% nonfat milk at room temperature for 1 h and incubated overnight with diluted primary antibody at 4 °C. Membranes were then washed and incubated with HRP-conjugated secondary antibody for 1 h at room temperature. Signal was visualized by enhanced chemiluminescence reagents (Thermo Scientific, Rockford, IL) and X-ray film exposure followed by scanning and digitalization. […]

HEK293T CARM1 KO cells = assay: Total ADMA-containing proteins co-precipitated with FLAG-tagged CARM1, western blot; type: cell-based; settings: FLAG IP probed with ADMA antibody; compared with CARM1 FL and CARM1 28–608
Source text: The structure of the N-terminal domain of CARM1 (residues 28–140) resembles those of the EVH1 domains, a subfamily of PH domains that bind proline-rich sequences. With our discovery that CARM1 substrates contain proline-rich motifs, we posited that the protein's N-terminal domain may be required for substrate recognition. To test this hypothesis, we generated three CARM1 constructs: one full-length (CARM1 FL) and two N-terminal truncations CARM1 28–608 and CARM1 140–608 (Fig. 3a). […] We transiently transfected the three FLAG-tagged CARM1 fusion constructs in HEK293T CARM1 KO cells. CARM1 was immunoprecipitated from all three cell lines using anti-FLAG M2 resin, and four known CARM1 substrates/interactors (that is, BAF155 (ref. [20]), MED12 (ref. [30]), PABP1 (ref. [36]) and NCOA3 (ref. [19])) and newly identified TET2 were detected by western blotting. […]
Cells were collected by trypsinization, washed with Dulbecco's phosphate buffer saline (Life Technologies, Carlsbad, CA) and lysed by suspension in lysis buffer (50 mM Tris-HCl pH 8.0, 150 mM NaCl, 10% glycerol, 0.5% Triton X-100 and 1 × protease inhibitor cocktail (Sigma-Aldrich)). After brief sonication followed by centrifugation, total protein was quantified using the BioRad Protein Assay (BioRad, Hercules, CA), and 20 μg protein was resolved by SDS–PAGE. […]

MCF7 CARM1 KO cells [3] = assay: In vivo methylation of BAF155, stable expression, western blot; type: cell-based, human
Source text: (§2) We next sought to assess the impact of CARM1 N-terminal deletion in cells stably expressing mutant enzymes. […] To quantify the affected ADMA-containing peptides in MCF7 CARM1 KO and CARM1 140–608 expressing cells, we employed our quantitative MS method (Fig. 1a) using CARM1 28–608 as a reference for normalization (Supplementary Data 4). […] The magnitude of reduction in CARM1 140–608 cells, however, was slightly less than that in the CARM1 KO cells. […] As indicated by R^2 of 0.65, noticeable differences existed between the levels of ADMA-containing peptides in cells expressing the N-terminal truncation of CARM1 and CARM1 28–608 control (Supplementary Fig. 4f).
as §1, with “°C.” for “°C. Membranes were then washed and incubated with HRP-conjugated secondary antibody for 1 h at room temperature. Signal was visualized by enhanced chemiluminescence reagents (Thermo Scientific, Rockford, IL) and X-ray film exposure followed by scanning and digitalization.”

MCF7 CARM1 KO cells [4] = assay: Total cellular ADMA levels, stable expression, western blot; type: cell-based, human; settings: stable expression in MCF7 CARM1 KO cells; compared with CARM1 FL and CARM1 28–608
Source text: as §2
as §1, with “°C.” for “°C. Membranes were then washed and incubated with HRP-conjugated secondary antibody for 1 h at room temperature. Signal was visualized by enhanced chemiluminescence reagents (Thermo Scientific, Rockford, IL) and X-ray film exposure followed by scanning and digitalization.”

B1: CARM1 140–608: CARM1 140–608 lacks the first 140 residues encompassing the EVH1 domain (protein)
chain: RTEESSAVQYFQFYGYLSQQQNMMQDYVRTGTYQRAILQNHTDFKDKIVLDVGCGSGILSFFAAQAGARKIYAVEASTMAQHAEVLVKSNNLTDRIVVIPGKVEEVSLPEQVDIIISEPMGYMLFNERMLESYLHAKKYLKPSGNMFPTIGDVHLAPFTDEQLYMEQFTKANFWYQPSFHGVDLSALRGAAVDEYFRQPVVDTFDIRILMAKSVKYTVNFLEAKEGDLHRIEIPFKFHMLHSGLVHGLAFWFDVAFIGSIMTVWLSTAPTEPLTHWYQVRCLFQSPLFAKAGDTLSGTCLLIANKRQSYDISIVAQVDQTGSKSSNLLDLKNPFFRYTGTTPSPPPGSHYTSPSENMWNTGSTYNLSSGMAVAGMPTAYDLSSVIASGSSVGHNNLIPLANTGIVNHTHSRMGSIMSTGIVQGSSGAQGSGGGSTSAHYAVNSQFTMGGPAISMASPMSIPTNTMHYGS
modifications: left off: FLAG, end not stated, kept
notes: CARM1 140–608 lacks the first 140 residues encompassing the EVH1 domain
In the case of B1, the “Abundance of ADMA-containing peptides” value (MCF7 CARM1 KO cells [1]) is reported as “massive reduction in abundances of ADMA-containing peptides”, the “Co-precipitation of BAF155, MED12, PABP1, NCOA3 and TET2” value [2] is reported as “substantially lower amounts of them were detected” and the “Abundance of CARM1-interacting (ADMA-containing) proteins” value (HEK293T CARM1 KO cells) is reported as “global decrease in abundance of CARM1-interacting proteins”. For the same molecule, the “In vivo methylation of BAF155” value (MCF7 CARM1 KO cells [3]) was “impaired in vivo methylation of BAF155” and the “Cellular protein (ADMA) methylation levels” value (MCF7 CARM1 KO cells [4]) was “drastically decreased levels of cellular protein methylation”.

Source: publication PMC5458078, “Global mapping of CARM1 substrates defines enzyme specificity and substrate recognition” (Nature Communications, 2017)
